Patent CN117964771A (ZHIZE TONGKANG GUANGZHOU BIOTECHNOLOGY CO LTD, dated 2024)

Molecular target: T1, 人基质金属蛋白酶7(hMMP7)重组蛋白 (human, UniProt P09237 18-267, limits assumed)
T1 construct: Recombinant protein made according to UniProt P09237; also called MMP7抗原; MMP7蛋白
T1 sequence (looked up): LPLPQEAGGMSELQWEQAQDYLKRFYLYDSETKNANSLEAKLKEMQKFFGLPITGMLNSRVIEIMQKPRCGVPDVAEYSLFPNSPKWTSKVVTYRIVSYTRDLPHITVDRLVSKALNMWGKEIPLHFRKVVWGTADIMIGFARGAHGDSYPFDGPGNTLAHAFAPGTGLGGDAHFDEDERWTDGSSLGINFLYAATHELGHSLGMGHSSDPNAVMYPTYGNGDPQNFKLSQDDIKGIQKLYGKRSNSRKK
Assay: SPR, labelled MMP7 immobilised on chip, antibody as analyte (100 nM, 2-fold dilutions), 1:1 Langmuir model

B1: MMP7单克隆抗体M4 (antibody, mouse IgG1, kappa, V domains shown)
VH: QVQLQQSGAELMKPGASVKLSCKASGYTFTSYYMYWVKQRPGQGLEWIGEINPSNADTEFNEKFKSKATLTVDKSSSTAYMQLSSLTSEDSAVYYCTRWPLYGAMDYWGQGTSVTVSS
VL: DVQITQSPSYLAASPGETITINCRASKSISKYLAWYQEKPGKTNKLLIYSGHWLQSGIPSRFSGSGSGSDFTLTISSLEPEDFAMYYCQQHFEYPWTFGAGTKLELKR
Q: Which Kd does the source give for B1 here?
A: < 1 nM
